Molecular target: human nucleophosmin (NPM; B23) (human) (UniProt P06748)
Test: Scatchard analysis, increasing amounts of 125I-labelled antibody on intact cells (cell line not stated)

Chain of UniProt P06748 (P06748 whole entry): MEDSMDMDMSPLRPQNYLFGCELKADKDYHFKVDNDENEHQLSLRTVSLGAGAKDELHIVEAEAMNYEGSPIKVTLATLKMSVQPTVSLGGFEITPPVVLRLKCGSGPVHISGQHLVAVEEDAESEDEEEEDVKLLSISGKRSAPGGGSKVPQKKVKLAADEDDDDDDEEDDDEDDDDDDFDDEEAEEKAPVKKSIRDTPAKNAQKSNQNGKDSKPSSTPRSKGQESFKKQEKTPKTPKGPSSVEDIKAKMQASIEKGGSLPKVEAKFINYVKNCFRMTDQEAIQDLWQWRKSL

Kd: 8.2 nM
Substance: mouse monoclonal anti-nucleophosmin antibody (Zymed Laboratories, catalog no. 32-5200)
